Results: the supplement of paper PMC9112550, “Optimization of the antimicrobial peptide Bac7 by deep mutational scanning” (BMC Biology, 2022)

test system: Escherichia coli TOP10; test: shrunken log2 fold change of peptide-encoding DNA abundance (4.5 h post-induction vs induction); higher = less antimicrobial activity (less host growth inhibition); settings: time post-induction: 4.5 h; library: site-saturation at positions 5, 18, 19, 20
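Note: peptides expressed intracellularly from a pBAD plasmid library in pooled LB shake-flask culture, induced with 0.3% L-arabinose, DNA abundance read by NGS, three biological replicates, DESeq2 with apeglm shrinkage.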

Sequence	shrunken log2 fold change
RRIRTRPPRLPRPRPRPCVEPRP	-0.0492
RRIRPRPPRLPRPRPRPLGIPRP	-0.0635
RRIRARPPRLPRPRPRPLIYPRP	0.0475
RRIRVRPPRLPRPRPRPIAIPRP	-0.0841
RRIRCRPPRLPRPRPRPFQYPRP	-1.21
RRIRSRPPRLPRPRPRPNAKPRP	0.00752
RRIRFRPPRLPRPRPRPGADPRP	0.187
RRIRRRPPRLPRPRPRPQDMPRP	0.0973
RRIRDRPPRLPRPRPRPFNRPRP	0.00902
RRIRCRPPRLPRPRPRPSFVPRP	-0.68
RRIRSRPPRLPRPRPRPRVDPRP	0.0568
RRIRKRPPRLPRPRPRPKVVPRP	0.223
RRIRIRPPRLPRPRPRPRKIPRP	-0.413
RRIRLRPPRLPRPRPRPDRQPRP	0.00462
RRIRPRPPRLPRPRPRPCDPPRP	-0.575
RRIRIRPPRLPRPRPRPTKLPRP	-0.406
RRIRDRPPRLPRPRPRPHMFPRP	-0.0389
RRIRNRPPRLPRPRPRPVWEPRP	0.0809
RRIRPRPPRLPRPRPRPWMMPRP	-0.03
RRIRWRPPRLPRPRPRPFAMPRP	-0.148
RRIRLRPPRLPRPRPRPKREPRP	0.0937
RRIRIRPPRLPRPRPRPTEAPRP	-0.153
RRIRCRPPRLPRPRPRPHQLPRP	-0.465
RRIRERPPRLPRPRPRPEHVPRP	-0.017
RRIRPRPPRLPRPRPRPYVFPRP	-0.659

Sequence	shrunken log2 fold change
RRIRGRPPRLPRPRPRPLPGPRP	1.01
RRIRCRPPRLPRPRPRPHKGPRP	-0.363
RRIRFRPPRLPRPRPRPEHLPRP	-0.223
RRIRIRPPRLPRPRPRPWCDPRP	-0.769
RRIRQRPPRLPRPRPRPIVPPRP	0.053
RRIRDRPPRLPRPRPRPWNAPRP	0.0296
RRIRCRPPRLPRPRPRPYWQPRP	-0.419
RRIRSRPPRLPRPRPRPCVGPRP	-0.0336
RRIRERPPRLPRPRPRPQHGPRP	-0.102
RRIRARPPRLPRPRPRPLEHPRP	0.0565
RRIRMRPPRLPRPRPRPFPRPRP	-0.0223
RRIRMRPPRLPRPRPRPYGPPRP	0.0478
RRIRFRPPRLPRPRPRPYYNPRP	-0.855
RRIRARPPRLPRPRPRPRLPPRP	0.667
RRIRGRPPRLPRPRPRPWQPPRP	-0.12
RRIRGRPPRLPRPRPRPPCFPRP	0.456
RRIRWRPPRLPRPRPRPSCCPRP	0.174
RRIRGRPPRLPRPRPRPCRYPRP	0.24
RRIRNRPPRLPRPRPRPFNGPRP	-0.0926
RRIRNRPPRLPRPRPRPHGAPRP	0.245
RRIRERPPRLPRPRPRPASNPRP	-0.257
RRIRFRPPRLPRPRPRPCRWPRP	0.0901
RRIRSRPPRLPRPRPRPYHWPRP	-0.479
RRIRHRPPRLPRPRPRPNFEPRP	0.00825
RRIRARPPRLPRPRPRPQRLPRP	0.247

Sequence	shrunken log2 fold change
RRIRIRPPRLPRPRPRPTINPRP	-0.65
RRIRIRPPRLPRPRPRPIIKPRP	-0.666
RRIRRRPPRLPRPRPRPSYMPRP	-0.257
RRIRRRPPRLPRPRPRPAQMPRP	0.161
RRIRIRPPRLPRPRPRPWLFPRP	0.0545
RRIRKRPPRLPRPRPRPANPPRP	0.071
RRIRMRPPRLPRPRPRPDRNPRP	1.4
RRIRYRPPRLPRPRPRPVELPRP	-0.151
RRIRLRPPRLPRPRPRPKTMPRP	0.0334
RRIRCRPPRLPRPRPRPCVNPRP	-0.106
RRIRYRPPRLPRPRPRPCHPPRP	-0.669
RRIRSRPPRLPRPRPRPRWVPRP	0.218
RRIRQRPPRLPRPRPRPHPTPRP	-0.13
RRIRSRPPRLPRPRPRPCILPRP	-0.241
RRIRIRPPRLPRPRPRPGVKPRP	-0.279
RRIRSRPPRLPRPRPRPWSKPRP	-0.405
RRIRPRPPRLPRPRPRPIHVPRP	-0.351
RRIRERPPRLPRPRPRPPPVPRP	0.261
RRIRWRPPRLPRPRPRPKNYPRP	-0.152
RRIRYRPPRLPRPRPRPTRLPRP	0.262
RRIRWRPPRLPRPRPRPYITPRP	-0.13
RRIRQRPPRLPRPRPRPDMFPRP	0.0212
RRIRRRPPRLPRPRPRPIIEPRP	0.0476
RRIRHRPPRLPRPRPRPMVLPRP	-0.0459
RRIRCRPPRLPRPRPRPGIEPRP	-0.0627
